Experimental data published in publication PMC4539205.

How the values were obtained:
[1] = target: recombinant NA (rNA) of swine A/California/07/2009 (H1N1): 6xHis-tag, tetrabrachion tetramerization domain, two glycines, NA amino acids 71-469 (Staphylothermus marinus | influenza A virus, swine A/California/07/2009 (H1N1)); test: SEC; […], Tris 50 mM, 150 mM NaCl pH 8, CaCl2 10 mM; […]
[2] = target: recombinant NA (rNA) of avian A/turkey/Turkey/1/2005 (H5N1): 6xHis-tag, tetrabrachion tetramerization domain, two glycines, NA amino acids 51-449 (Staphylothermus marinus | influenza A virus, avian A/turkey/Turkey/1/2005 (H5N1)); test: as above
[3] = target: recombinant NA (rNA) of avian A/turkey/Turkey/1/2005 (H5N1): 6xHis-tag, tetrabrachion tetramerization domain, two glycines, NA amino acids 51-449 (Staphylothermus marinus | influenza A virus, avian A/turkey/Turkey/1/2005 (H5N1)); test: negative-stain TEM with single-particle 3D reconstruction

Row | Substance | stoichiometry N [1] | stoichiometry N [2] | stoichiometry N [3]
1 | recombinant NA (rNA) of swine A/California/07/2009 (H1N1): 6xHis-tag, tetrabrachion tetramerization domain, two glycines, NA amino acids 71-469 (enzyme) | 4 |  | 
2 | recombinant NA (rNA) of avian A/turkey/Turkey/1/2005 (H5N1): 6xHis-tag, tetrabrachion tetramerization domain, two glycines, NA amino acids 51-449 (enzyme) |  | 4 | 4
